Data as given in the supplement of paper PMC9170038.

Test system: MS2 coat protein
Assay: apparent KD of MS2 coat protein; designed switch direction (-1 OFF switch, 1 ON switch): 1; higher = weaker reporter binding
Summary of the method: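 RNA switches sharing common flanks were transcribed by stalled E. coli RNA polymerase on Illumina chips. A doubling series of SNAP-549-labelled MS2 coat protein, from 0.7 or 1.5 nM to 3 µM, was applied in Tris-HCl pH 7.5 buffer with KCl, MgCl2, BSA, DTT, tRNA and Tween-20. Each step lasted 0.8–1.5 h at the bottom of the series and 10–20 min at the top. Normalised cluster fluorescence was curve-fitted, giving apparent KD as the per-design median over clusters.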

[1] = input ligand: microRNA oligo, concentration not stated
[2] = Eterna round: R95, input ligand: FMN 200 uM
[3] = Eterna round: R95, input ligand: microRNA oligo, concentration not stated
[4] = Eterna round: R95, input ligand: none

| Sequence | apparent KD of MS2 coat protein (input ligand: FMN 200 uM) | apparent KD of MS2 coat protein [1] | apparent KD of MS2 coat protein (input ligand: none) | apparent KD of MS2 coat protein [2] | apparent KD of MS2 coat protein [3] | apparent KD of MS2 coat protein [4] |
| --- | --- | --- | --- | --- | --- | --- |
| GCGUUUAACGUAGGAUAUCGAGCUACAUGAGGAUCACCCAUGUCUUUGUAAAGUUUUUUUAAUUCCGAGAAGGACGUAUUGCAU [JR_SSNG2_Sub073] (Eterna round: R96, puzzle: Same State NG 2) | 27.1 nM | 27.2 nM | 35.9 nM | – | – | – |
| UAAAAGAAGUUAGGAUAUGGUGAAGUACUGUGGCCAGAAGGGACGACUAACCGAGAAAGACAUGAGGAUCACCCAUGUCCACAG [Eternabot solution 20] (Eterna round: R96, puzzle: Same State NG 1) | 86.5 nM | 57 nM | 74.5 nM | – | – | – |
| GGUCCAGCCUGAGCUGGACAAAAGCAUGUACAUGAGGAUCACCCAUGUUCAUGUACAAGCUUUUUGCUCGUCUUAUU [salish99_208a_r3_049] (puzzle: Sensor for hsa-mir-208a) | – | – | – | 560 nM | 15.8 nM | 687 nM |
| GGUGGGUUGCUGCCGGCACAUGAGGAUCACCCAUGUUUUGGGAAGGAUAUGGUACCUAUUUGGUACCAGAAGGUCCCGUUGGUG [salish99_SSNG3_r04_709] (Eterna round: R96, puzzle: Same State NG 3) | 978 nM | 449 nM | 898 nM | – | – | – |
| UGGUACAUGGGAGGAUAUCCUAUGGUGACAUGAGGAUCACCCAUGUAAUUGGAGCCGAAAGGCAUGGAGAAGGCCCAUGUACCU [JL SSNG1 3.78] (Eterna round: R96, puzzle: Same State NG 2) | 40.2 nM | 31.4 nM | 44.1 nM | – | – | – |
| CUCCUAUCGGGAGGAUAUGGUGCCUUGUUGGUGCUAGAAGGUCCAACAUGAGGAUCACCCAUGUGGGAGUGGUUGAGAGACCUC [SS NG10LRO13] (Eterna round: R96, puzzle: Same State NG 1) | 131 nM | 105 nM | 137 nM | – | – | – |
| GGUCCAGCCUGAGCUGGACAAAAGCAUGUACAUGAGGAUCACCCAUGUCAUGUACAAGCUUUUUGCUCGUCUAAAAU [Mat - hsa-mir-208a - 101] (puzzle: Sensor for hsa-mir-208a) | – | – | – | 508 nM | 15.8 nM | 629 nM |
| GCGGAACGGGCCGACAUGAGGAUCACCCAUGUGGCCUCAUGUAAGGAUAUCGGGAAGAAGAAAACCGAGAAGGUACGGUGACGC [AK SSNG3-V2-31] (Eterna round: R96, puzzle: Same State NG 3) | 47.2 nM | 15.6 nM | 107 nM | – | – | – |
| AUAAAAGAAAGAAACACAUGAGGAUCACCCAUGUAACGACUACAGGAUAUGCUGCACAGUCCAAAGCAGAAGGGUGGUCAAAAC [Qulaesed] (Eterna round: R96, puzzle: Same State NG 3) | 280 nM | 111 nM | 102 nM | – | – | – |
| AGCGAGAUAGGCAAGGAUAUGCUGGGUUUCACAUGAGGAUCACCCAUGUCAUAGGUAAUGUCCGAGCAGAAGGUGCAUUCUCUUU [ak bound state multiloop solution] (puzzle: Same State 2) | – | – | – | – | 172 nM | – |
| UAAAUAAUGAUAGGAUAUACAUGAGGAAUCCUCGUAGAAGGAUCAUGACAUGAGGAUCACCCAUGUAACGCUCGAAAGAGCGUA [Mat - Same State NG 1 - JL mod - D44] (Eterna round: R96, puzzle: Same State NG 1) | 485 nM | 265 nM | 219 nM | – | – | – |
| GGCAGGUGCAGGCUUGCUUGCACCUGGAGACAUGAGGAUCACCCAUGUUUGGGACAAGCUUUGCUCCUCGUCUUUUC [JL ViennaUCT Isusreraar mod 7] (Eterna round: R96, puzzle: Sensor for hsa-mir-208a) | 622 nM | 111 nM | 775 nM | – | – | – |
| GAGCCAGUCCGAGGAUAUUCAUAUUAACACAUGAGGAUCACCCAUGUGGGCUCAGAAGAGCCCUGGGAGAAGGCGGACUGGCUC [SS-NG2-LRO16] (Eterna round: R96, puzzle: Same State NG 2) | 16.5 nM | 232 nM | 297 nM | – | – | – |
| GCUUCGGCGGUAGGAUAUCUAGGAUAUGGGAAGAGCUAAGCUUGGAAGUCACUUCACCCAGAAGGAGAGAAGGACACCUUCGGG [pwkr ssNG2 2FMN + F9.4] (Eterna round: R96, puzzle: Same State NG 2) | 230 nM | 3.87 nM | 47 nM | – | – | – |
| GAAAUAAUGAAAGGAUAUACAUGAGGAAUUCUCGUAGAAGGUUCAUGACAUGAGGAUCACCCAUGUAUCGCUCGAAAGAGCGAG [Mat - Same State NG 1 - JL mod - D31] (Eterna round: R96, puzzle: Same State NG 1) | 510 nM | 152 nM | 64 nM | – | – | – |
| AUGAUUAAUGCAGGAUAUGAUUAACAUGAGGAUCACCCAUGUGGUGUUGUGAGUAAGGAGAGUGAUCAGAAGGGCAUUUUUUUU [JMF's solution 34] (Eterna round: R96, puzzle: Same State NG 2) | 731 nM | 430 nM | 701 nM | – | – | – |
| AGAUCAUGACGAGGAUAUGGUACAUGAGGAUCACCCAUGUAUGUAUCAUAACGCGAAUGACGAAACCAGAAGGCGUCGUGAUCA [Mat - Same State NG 2 - JL mod - D43] (Eterna round: R96, puzzle: Same State NG 2) | 8.74 nM | 11.9 nM | 15.8 nM | – | – | – |
| AGUCCAGCCUGAGCUGGACAAAAGCGUGUACAUGAGGAUCACCCAUGUUCAUGUACAAGCUUUUUGCUCGUCUUAAA [Zipper 52 - 6] (puzzle: Sensor for hsa-mir-208a) | – | – | – | 25.7 nM | 20 nM | 127 nM |
| UAAGGACAUGAGGAUCACCCAUGUGCUUCAUAUGGAGAAACUCAGGAUAUGCUGAGGAUCACCCAGCAGAAGGGAGAUCCGAGG (Eterna round: R96, puzzle: Same State NG 3) | 206 nM | 279 nM | 281 nM | – | – | – |
| GAGAGAUGAUUAGGAUAUUCGGUGAUAAUGAUAGAAGAAGGAAUUGACAUGAGGAUCACCCAUGUGGGAAUAAUCCAGAGAGAG [Parity 21 - Jieux - Same State NG 1] (Eterna round: R96, puzzle: Same State NG 1) | 148 nM | 77.5 nM | 161 nM | – | – | – |
| GCUCGAAUCACAGCCAACAUGAGGAUCACCCAUGUAUGUUGGUAGGAUAUCGUUUCUAAGGGAAACGAGAAGGGCCGAACGAGC [SameState NG3 #10] (Eterna round: R96, puzzle: Same State NG 3) | 171 nM | 151 nM | 163 nM | – | – | – |
| AAGCGCUGUCGAGAGGAUAUGCGGUGAUGGACAUGAGGAUCACCCAUGUUAGCGAUAGCAUUACGGUAGAAGGCUCUACAGCUGA [Mat - Same State 2 - Mod of UCT - D86] (puzzle: Same State 2) | – | – | – | 28.3 nM | 268 nM | 272 nM |
| GCGAGCGUACUUGCAACAUGAGGAUCACCCAUGUUAACUGGACAGGAUAUGGUACCGUUUCGGUACCAGAAGGGUUCCUCCAUG [JL SSNG3 3.61] (Eterna round: R96, puzzle: Same State NG 3) | 160 nM | 134 nM | 135 nM | – | – | – |
| UGUUGUAUUACAGGAUAUCUAUGUUUUUUAUUUAGAGAAGGGUAUUCACAUGAGGAUCACCCAUGUAUAUACGAGGAAGUUGUG [JMF's solution 57] (Eterna round: R96, puzzle: Same State NG 1) | – | 40.4 nM | – | – | – | – |
| GACAGGCAAGCUUUUUUCUCGUAGUGUAAACAUGAGGAUCACCCAUGUGCUCGCCCUAGAUCUUUGGAUCGCAGAAA [Ceedes] (puzzle: Sensor for hsa-mir-208a) | – | – | – | 39.5 nM | 22.6 nM | 50.1 nM |
| GCUAGAAUUAAAGCCAACAUGAGGAUCACCCAUGUAUGUUGGUAGGAUAUCGUUUGCUUUGCAAACGAGAAGGGCUAAACUAGC [JL SSNG3 1.06] (Eterna round: R96, puzzle: Same State NG 3) | 78.3 nM | 58.5 nM | 73.1 nM | – | – | – |
| AACCCAUCGGGAGGAUAUGGCACCUUAUUGGUGCCAGAAGGUCCAACAUGAGGAUCACCCAUGUGGGAGCCGUCGAAAGACGGC [Fiskers NG1ss - 7] (Eterna round: R96, puzzle: Same State NG 1) | 270 nM | 66.5 nM | 293 nM | – | – | – |
| GCAUCACAUGAGGAUCACCCAUGUCUUCGGAGCGGAGGAUAUGGUCACUGUAAACAGUGGCCAGAAGGCUGGAUGC [SS1 - Son of Teenbexe v3] (puzzle: Same State 1) | – | – | – | – | 26 nM | – |
| ACAUGAGACCUAGGAUAUCUUGUACCUACAUGUGACAUGAGGAUCACCCAUGUGGUAAGUAUGAUAGAGAAGGAGGAGAUAUGU [Equivalance 55 - Jieux - Same State NG 2] (Eterna round: R96, puzzle: Same State NG 2) | 15.6 nM | 39.8 nM | 51.9 nM | – | – | – |
| GCUAGAAUUAAAGCCAACAUGAGGAUCACCCAUGUAUGUUGGCAGGAUAUCGUUUGCUUUGCAAACGAGAAGGGCUAAACUAGC [JL SSNG3 1.02] (Eterna round: R96, puzzle: Same State NG 3) | 114 nM | 121 nM | 182 nM | – | – | – |
